Laboratory results as given in patent publication US10774132B2, “Ultralong complementarity determining regions and uses thereof” (THE SCRIPPS RESEARCH INSTITUTE, priority 2012, dated 2020).

Legend:
[1] = test system: untransfected HEK293A cells; experiment: Immunocytometric analysis, untransfected HEK293A cells; type: binding, human; settings: 10 μg/ml antibody
Procedure: (§1) Additionally, binding of the chimeric recombinant antibodies to BVDV antigens was evaluated by immunocytometric analysis of transfected human embryonic kidney (HEK) 293A cells (Invitrogen), as previously described (see, e.g., Njongmeta et al. (2012) Vaccine 30:1624-1635). Briefly, HEK 293A monolayers grown in 6-well tissue culture plates were transfected with 2 µg/well of plasmid (pCDNA3.3, Invitrogen) encoding BVDV antigens (N^pro, E2, or non-structural proteins NS2-3) using Lipofectamine 2000 reagent (Invitrogen), and incubated for 48 hr at 37° C. with 5% CO2. The monolayers were fixed with ice-cold 100% methanol for 10 minutes, rinsed with PBS, and after blocking for 1 hr with PBS containing 5% fetal bovine serum (blocking buffer), the monolayers were incubated at room temperature for 1 hr with 10 μg/ml of a mouse anti-FLAG M2-alkaline phosphatase (AP)-conjugate (Sigma) in blocking buffer or 10 μg/ml of the chimeric recombinant antibodies (H12 or B8). […] Following washes in blocking buffer, the AP activity in all the wells was detected using Fast Red AS-MX substrate (Sigma). […]

[2] = test system: NS2-3 non-structural proteins of BVDV; experiment: Immunocytometric analysis of HEK 293A cells transfected with BVDV antigens; type: binding, bovine viral diarrhea virus; settings: 10 μg/ml antibody
Procedure: as §1

CXCR1 = target: T1, CXCR1 (Homo sapiens, UniProt P25024); experiment: Flow cytometry binding to CXCR1-U2OS cells
T1 construct: host or cells: U2OS
T1 sequence (P25024 1-350): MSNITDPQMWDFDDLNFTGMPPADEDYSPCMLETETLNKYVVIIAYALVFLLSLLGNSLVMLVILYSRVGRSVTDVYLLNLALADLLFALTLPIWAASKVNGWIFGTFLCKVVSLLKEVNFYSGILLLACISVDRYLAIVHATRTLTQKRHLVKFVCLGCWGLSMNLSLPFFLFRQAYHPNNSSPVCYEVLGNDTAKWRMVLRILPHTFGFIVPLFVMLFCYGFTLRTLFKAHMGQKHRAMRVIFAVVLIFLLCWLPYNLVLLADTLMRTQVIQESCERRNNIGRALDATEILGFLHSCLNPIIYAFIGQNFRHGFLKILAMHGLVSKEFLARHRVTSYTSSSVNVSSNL
Procedure: (§2) Briefly, a cell line expressing functionally validated CXCR1 derived from U2OS cells was obtained from DiscoveRx and cultured per manufacturer's instructions (Cat #93-0226C3, DiscoveRx Corporation, Freemont, Calif.). The parental cell line U2OS was obtained from ATCC and cultured under the same conditions as the CXCR1 cells. Cell culture supernatants from Example 2 above were then tested for binding to cells by flow cytometry. The adherent U2OS or CXCR1-U2OS cells were dissociated with Accutase (Innovative Cell Technologies, Inc., San Diego, Calif.), neutralized with an equal volume of media containing 10% serum, centrifuged at 1000 g, and resuspended in PBS with 2% BSA. Next, cells were dispensed into microtiter plates to achieve between 30,000 to 300,000 cells per well, centrifuged again, and resuspended in cell culture supernatant containing expressed IgG, or a dilution of IgG-containing cell culture supernatant. A fluorescent-conjugated anti-Human Fc antibody was used to detect binding of the expressed BLV1H12-IL8 fusion proteins to cells.

Parental U2OS = experiment: Flow cytometry binding to parental U2OS cells; settings: cell culture supernatant
Procedure: as §2

Human mPB CD34+ cells = experiment: Proliferative activity on human granulocyte progenitors (flow cytometry); type: cell-based; settings: 7 days, flow cytometry
Procedure: Human mPB CD34^+ cells were purchased from AllCells. Cells were resuspended in HSC expansion medium (StemSpan SFEM, StemCell Technologies) supplemented with 1× antibiotics and the following recombinant human cytokines: thrombopoietin, IL6, Flt3 ligand, and stem cell factor (100 ng/mL, R & D Systems), then plated in 96-well plates (1000 cells per well), with varied concentrations of BLV1H12-bGCSF fusion antibodies. Cells were cultured for 7 days at 37° C. in a 5% CO2 incubator, then analyzed by flow cytometry to measure cell number and expression of CD45ra and CD41. Cells were stained in staining medium (HBSS supplemented with 2% FBS and 2 mM EDTA) at 4° C. for 1 h with PECy7 anti-CD45ra and eFluor 450 anti-CD41 (eBiosciences), then washed with staining medium and analyzed. Multicolor analysis for cell phenotyping was performed on a LSR II flow cytometer (Becton Dickinson). FIGS. 10A-10E and Tables 9-10 show the human granulocyte progenitor cell proliferative activities of the Ab-GCSF fusion antibodies.

[3] = Pharmacokinetics in mice (ELISA of blood samples); type: in vivo; settings: 70 μg injected, BALB/c mice
Procedure: For PK study in mice, 70 μg of the immunoglobulin constructs described herein were injected into 3 BALB/c mice per group. Blood samples were drawn from time 0 to 14 days with extended intervals and analyzed by ELISA using anti-human IgG Fc antibody with horseradish peroxidase (HRP) labeled (KPL) and anti-6×His antibody (“6×His” disclosed as SEQ ID NO: 511) with HRP labeled (Clontech). Data were normalized by taking maximal concentration at the first time point (30 min).

mice neutrophils = experiment: Neutrophil counts in mice, 10th day after injection; type: in vivo; settings: blood stained and counted at the 10th day post-injection
Procedure: On the 10th day after injection of BLV1H12-bGCSF fusion antibodies into mice for PK study, blood samples were drawn from the mice and stained using the Diff Quick Staining Kit (Thermo Fisher Scientific, IL). Neutrophils and white blood cells were counted under microscope and the percentages of neutrophils were analyzed. FIGS. 12A-12B and Table 12 show proliferative activities of BLV1H12-bGCSF fusion antibodies on mice neutrophils that are blood stained and counted at the 10th day post-injection.

Mouse NFS-60 cells = experiment: Proliferation assay on mouse NFS-60 cells (AlamarBlue); type: cell-based; settings: 72 hours
Procedure: Mouse NFS-60 cells were obtained from American Type Culture Collection (ATCC), VA, and cultured in RPMI-1640 medium supplemented with 10% fetal bovine serum (FBS), 0.05 mM 2-mercapoethanol and 62 ng/ml human macrophage colony stimulating factor (M-CSF). For proliferation assay, mouse NFS-60 cells were washed three times with RPMI-1640 medium and resuspended in RPMI-1640 medium with 10% FBS and 0.05 mM 2-mercapoethanol at a density of 1.5×10^5 cells/ml. In 96-well plates, 100 μl of cell suspension was added into each well, followed by the addition of varied concentrations of bGCSF, BLV1H12 antibody, and the immunoglobulin constructs described herein, Equal volume of PBS buffer was added into the control wells. The plates were incubated at 37° C. in a 5% CO2 incubator for 72 hours. Cells were then treated with AlamarBlue (Invitrogen) ( 1/10 volume of cell suspension) for 4 hours at 37° C. Fluorescence at 595 nm for each well was read to indicate the cell viability.

B1: H12 (protein, listed as Bos taurus)
chain: CVIVHQKTTQQSSCPAGFRDCVACTPGPESCCRSGCDGARRRVGLRYFFDSTSPITTYTYEHHIDAW
modifications: H12
- binding to untransfected cells [1]: weakly bound
- binding to HEK293A cells transfected with NS2-3 of BVDV [2]: strongly binds

B2: BLV1H12-IL8: human IL-8 (amino acids 26-99) replacing the knob domain of BLV1H12 CDR3H, SEQ ID NO: 38 (antibody)
heavy: QVQLRESGPSLVKPSQTLSLTCTASGFSLSDKAVGWVRQAPGKALEWLGSIDTGGNTGYNPGLKSRLSITKDNSKSQVSLSVSSVTTEDSATYYCTSVHQETKKYQSPRSAKELRCQCIKTYSKPFHPKFIKELRVIESGPHCANTEIIVKLSDGRELCLDPKENWVQRVVEKFLKRAENSGSGSYTYNYEWHVDVWGQGLLVTV
- specificity (ratio of median fluorescence of CXCR1-U2OS cells versus U2OS parental cells) (CXCR1): has specificity for CXCR1
- Median Arbitrary Fluorescence Units (IgG binding) (CXCR1; CXCR1-U2OS cells, cell culture supernatant, flow cytometry): 707 AFU
- Median Arbitrary Fluorescence Units (IgG binding) (Parental U2OS): 76 AFU

B3: bGCSF: bovine G-CSF (protein, listed as Bos taurus)
chain: TPLGPARSLPQSFLLKCLEQVRKIQADGAELQERLCAAHKLCHPEELMLLRHSLGIPQAPLSSCSSQSLQLTSCLNQLHGGLFLYQGLLQALAGISPELAPTLDTLQLDVTDFATNIWLQMEDLGAAPAVQPTQGAMPTFTSAFQRRAGGVLVASQLHRFLELAYRGLRYLAEP
modifications: bGCSF
notes: bovine G-CSF
- Number of CD45RA-CD41- (Human mPB CD34+ cells; 0.55886 ng/mL): 7354
- Number of CD45RA-CD41- (Human mPB CD34+ cells; 1.67657 ng/mL): 9776
- Number of CD45RA-CD41- (Human mPB CD34+ cells; 5.02972 ng/mL): 12700
- Number of CD45RA-CD41- (Human mPB CD34+ cells; 15.08916 ng/mL): 13200
- Number of CD45RA-CD41- (Human mPB CD34+ cells; 45.26749 ng/mL): 13700
- Number of CD45RA-CD41- (Human mPB CD34+ cells; 135.80247 ng/mL): 13300
- Number of CD45RA-CD41- (Human mPB CD34+ cells; 407.40741 ng/mL): 13700
- Number of CD45RA-CD41- (Human mPB CD34+ cells; 1222.22222 ng/mL): 14100
- Number of CD45RA-CD41- (Human mPB CD34+ cells; 3666.66667 ng/mL): 13100
- Number of CD45RA-CD41- (Human mPB CD34+ cells; 11000 ng/mL): 13800
- Percentage (blood level normalized to first time point, 30 min) ([3]; 0.5 hour): 100.00%
- Percentage (blood level normalized to first time point, 30 min) ([3]; 1 hour): 79.52%
- Percentage (blood level normalized to first time point, 30 min) ([3]; 3 hour): 56.81%
- Percentage (blood level normalized to first time point, 30 min) ([3]; 6 hour): 14.94%
- Percentage (blood level normalized to first time point, 30 min) ([3]; 24 hour): 4.08%
- Percentage (blood level normalized to first time point, 30 min) ([3]; 48 hour): 0.00%
- Percentage (blood level normalized to first time point, 30 min) ([3]; 72 hour): 0.00%
- Percentage of Neutrophil (mice neutrophils): 16.48
- F.I. (fluorescence at 595 nm, AlamarBlue, cell viability) (Mouse NFS-60 cells; 0.09145 ng/mL): 1214
- F.I. (fluorescence at 595 nm, AlamarBlue, cell viability) (Mouse NFS-60 cells; 0.27435 ng/mL): 1360.925
- F.I. (fluorescence at 595 nm, AlamarBlue, cell viability) (Mouse NFS-60 cells; 0.82305 ng/mL): 1761
- F.I. (fluorescence at 595 nm, AlamarBlue, cell viability) (Mouse NFS-60 cells; 2.46914 ng/mL): 2101
- F.I. (fluorescence at 595 nm, AlamarBlue, cell viability) (Mouse NFS-60 cells; 7.40741 ng/mL): 2405
- F.I. (fluorescence at 595 nm, AlamarBlue, cell viability) (Mouse NFS-60 cells; 22.22222 ng/mL): 2646
- F.I. (fluorescence at 595 nm, AlamarBlue, cell viability) (Mouse NFS-60 cells; 66.66667 ng/mL): 2812.098
- F.I. (fluorescence at 595 nm, AlamarBlue, cell viability) (Mouse NFS-60 cells; 200 ng/mL): 3087.144

B4: hGCSF: human G-CSF (protein, UniProt P09919 31-207, looked up)
Granulocyte …: TPLGPASSLPQSFLLKCLEQVRKIQGDGAALQEKLVSECATYKLCHPEELVLLGHSLGIPWAPLSSCPSQALQLAGCLSQLHSGLFLYQGLLQALEGISPELGPTLDTLQLDVADFATTIWQQMEELGMAPALQPTQGAMPAFASAFQRRAGGVLVASHLQSFLEVSYRVLRHLAQP
- Number of CD45RA-CD41- (Human mPB CD34+ cells; 4.11523 ng/mL): 5900
- F.I. (fluorescence at 595 nm, AlamarBlue, cell viability) (Mouse NFS-60 cells; 0.09145 ng/mL): 1266.554
- F.I. (fluorescence at 595 nm, AlamarBlue, cell viability) (Mouse NFS-60 cells; 0.27435 ng/mL): 1478.287
- F.I. (fluorescence at 595 nm, AlamarBlue, cell viability) (Mouse NFS-60 cells; 0.82305 ng/mL): 1752.216
- F.I. (fluorescence at 595 nm, AlamarBlue, cell viability) (Mouse NFS-60 cells; 2.46914 ng/mL): 2224.028
- F.I. (fluorescence at 595 nm, AlamarBlue, cell viability) (Mouse NFS-60 cells; 7.40741 ng/mL): 2587.222
- F.I. (fluorescence at 595 nm, AlamarBlue, cell viability) (Mouse NFS-60 cells; 22.22222 ng/mL): 2751.249
- F.I. (fluorescence at 595 nm, AlamarBlue, cell viability) (Mouse NFS-60 cells; 66.66667 ng/mL): 2815.37
- F.I. (fluorescence at 595 nm, AlamarBlue, cell viability) (Mouse NFS-60 cells; 200 ng/mL): 2948.509
